Laboratory results published in patent US20250073334A1 (University of California, published 2025).

Tests used:
[1] = target: SpyCatcher-CBU1910 fusion protein (Coxiella burnetii); test: SpyTag/SpyCatcher conjugation, SDS-PAGE
[2] = target: SpyCatcher-H5 hemagglutinin construct (avian influenza A); test: SpyTag/SpyCatcher reaction, SDS-PAGE

B1: CpG-ST-E2 nanoparticle (ST-E2 with CpG 1826 conjugated in the internal cavity) (other)
chain: MAHIVMVDAYKPTKGSGTAGGGSGSLSVPGPAAAEEKAAPAAAKPATTEGEFPETREKMSGIRRAIAKAMVHSKHTAPHVTLMDEADVTKLVAHRKKFKAIAAEKGIKLTFLPYVVKALVSALREYPVLNTSIDDETEEIIQKHYYNIGIAADTDRGLLVPVIKHADRKPIFALAQEINELAEKARDGKLTPGEMKGASCTITNIGSAGGQWFTPVINHPEVAILGIGRIAEKPIVRCGEIVAAPMLALSLSFDHRMIDGATAQKALNHIKRLLSDPELLLMEA
B1: binds [1]; binds [2].
